From US20140315251A1 come the findings set out here.

Assay [1] deals with Recombinant canine IL-31 produced in CHO cells (canine). The assay is described as follows: cell-based or functional assay.
Assay [2] has the same target. The assay is described as follows: SPR (Biacore), IL-31 amine-coupled to the chip, mAb in solution, 1:1 fit. A general note: SPR reads the build-up and loss of mass on a sensor chip optically.
Assay [3] has the same target.
Assay [4] has the same target. Kind of assay: SPR (Biacore), IL-31 amine-coupled to the chip, mAb in solution, 1:1 fit; Biacore affinity (SPR); weak, about 0.5 uM; not active in the DH82 pSTAT assay.

Sequence of Recombinant canine IL-31 produced in CHO cells (canine) (chain, as listed by the source limits assumed, form in doubt): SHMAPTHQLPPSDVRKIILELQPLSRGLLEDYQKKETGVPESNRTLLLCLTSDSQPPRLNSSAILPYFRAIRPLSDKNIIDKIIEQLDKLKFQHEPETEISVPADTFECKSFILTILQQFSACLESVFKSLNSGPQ

B1: Mouse 34D03 (antibody, V domains shown)
VH: EVQLVESGGDLVKPGGSLKLSCAASGFSFSNYGMSWVRQTPDKRLEWVATISYGGSYTYYPDNIKGRFTISRDNAKNTLYLQMSSLKSEDTAMYYCVRGYGYDTMDYWGQGTSVTVSS
VL: DILLTQSPASLAVSLGQRAIISCKASQSVSFAGTGLMHWYQQKPGQQPKLLIYRASNLEAGVPTRFSGSGSRTDFTLNIHPVEEEDAATYFCQQSREYPWTFGGGTKLEIK
A word on the Kd: it is the constant that tells how readily two partners part at equilibrium. B1: in assay [1], the DH82 pSTAT Assay, Co-incubation IC50 was found to be 1.73 µg/ml and the DH82 pSTAT Assay, Pre-treatment IC50 was determined as 2.28 µg/ml. In addition, the Kd in assay [2] amounted to 1.01 pM.

B2: Chimeric 34D03 (antibody, V domains shown)
VH: EVQLVESGGDLVKPGGSLKLSCAASGFSFSNYGMSWVRQTPDKRLEWVATISYGGSYTYYPDNIKGRFTISRDNAKNTLYLQMSSLKSEDTAMYYCVRGYGYDTMDYWGQGTSVTVSS
VL: DILLTQSPASLAVSLGQRAIISCKASQSVSFAGTGLMHWYQQKPGQQPKLLIYRASNLEAGVPTRFSGSGSRTDFTLNIHPVEEEDAATYFCQQSREYPWTFGGGTKLEIKR
Take B2: in assay [1], the DH82 pSTAT Assay, Co-incubation IC50 worked out at 1.28 µg/ml and the DH82 pSTAT Assay, Pre-treatment IC50 was found to be 1.08 µg/ml. The Kd in assay [2] worked out at 4.65 pM.

B3: Caninized 34D03 (antibody, V domains shown)
VH: EVQLVESGGDLVKPGGSLRLSCVASGFTFSNYGMSWVRQAPGKGLQWVATISYGGSYTYYPDNIKGRFTISRDNAKNTLYLQMNSLRAEDTAMYYCVRGYGYDTMDYWGQGTLVTVSS
VL: EIVMTQSPASLSLSQEEKVTITCKASQSVSFAGTGLMHWYQQKPGQAPKLLIYRASNLEAGVPSRFSGSGSGTDFSFTISSLEPEDVAVYYCQQSREYPWTFGQGTKLEIKR
On to B3, for which, in assay [1], the DH82 pSTAT Assay, Co-incubation IC50 is 2.42 µg/ml and the DH82 pSTAT Assay, Pre-treatment IC50 was 2.25 µg/ml. Further, in assay [2], the Kd was 29.1 pM. In addition, the IC50 (inhibition of canine IL-31 induced pSTAT signaling in canine DH82 monocytes) in assay [3] was determined as 2.29 µg/mL.

B4: Felinized 34D03 (antibody, V domains shown)
VH: DVQLVESGGDLVKPGGSLRLTCVASGFTYSNYGMSWVRQAPGKGLQWVATISYGGSYTYYPDNIKGRFTISRDNAKNTLYLQMNSLKTEDTATYYCVRGYGYDTMDYWGQGTLVTVSS
VL: EIQMTQSPSSLSASPGDRVTITCKASQSVSFAGTGLMHWYQQKPGKVPKLLIYRASNLEAGVPSRFSGSGSGTDFTLTISSLEPEDAATYYCQQSREYPWTFGQGTKLEIKR
For B4, in assay [3], the IC50 (inhibition of canine IL-31 induced pSTAT signaling in canine DH82 monocytes) was 2.41 µg/mL.

B5: Mouse 11E12 (antibody, V domains shown)
VH: QVQLQQSGAELVKPGASVKLSCKASGYTFKYYDINWVRQRPEQGLEWIGWIFPGDGGTKYNETFKGKATLTTDKSSSTAYMQLSRLTSEDSAVYFCARGGTSVIRDAMDYWGQGTSVTVSS
VL: DIVLTQSPASLAVSLGQRATISCRASESVDNYGISFMHWYQQKPGQPPKLLIYRASNLESGIPARFSGSGSRTDFTLTINPVETDDVATYYCQQSNKDPLTFGAGTKLELK
For B5, in assay [1], the DH82 pSTAT Assay, Co-incubation IC50 stood at 1.61 µg/ml and the DH82 pSTAT Assay, Pre-treatment IC50 stood at 2.28 µg/ml. Also, in assay [2], the equilibrium dissociation constant (Kd) was 0.893 pM.

B6: Chimeric 11E12 (antibody, V domains shown)
VH: QVQLQQSGAELVKPGASVKLSCKASGYTFKYYDINWVRQRPEQGLEWIGWIFPGDGGTKYNETFKGKATLTTDKSSSTAYMQLSRLTSEDSAVYFCARGGTSVIRDAMDYWGQGTSVTVSS
VL: DIVLTQSPASLAVSLGQRATISCRASESVDNYGISFMHWYQQKPGQPPKLLIYRASNLESGIPARFSGSGSRTDFTLTINPVETDDVATYYCQQSNKDPLTFGAGTKLELKR
As to B6, in assay [1], the DH82 pSTAT Assay, Co-incubation IC50 amounted to 1.48 µg/ml and the DH82 pSTAT Assay, Pre-treatment IC50 is 1.57 µg/ml. In addition, in assay [2], the Kd was 0.268 pM.

B7: Mouse 19D07 (antibody, V domains shown)
VH: EVKLVESGGGLVKPGGSLKLSCAASGFAFSSYDMSWVRQIPEKRLEWVATITSGGGYTYSADSVKGRFTISRDNARNTLYLQMSSLRSEDTAVYYCARQNWVVGLAYWGQGTLVTVSA
VL: DIVMSQSPSSLSVSAGDKVTMSCKSSQSLLNSGNQKNYLAWYQQKPWQPPKLLIYGASTRESGVPDRFTGSGSGTDFTLTISSVQAEDLAVYYCQNDYSYPYTFGGGTKLEIK
With B7, in assay [1], the DH82 pSTAT Assay, Co-incubation IC50 amounted to 1.76 µg/ml and the DH82 pSTAT Assay, Pre-treatment IC50 was 3.46 µg/ml. Also, the Kd in assay [2] was found to be 7.24 pM.

B8: Chimeric 19D07 (antibody, V domains shown)
VH: EVKLVESGGGLVKPGGSLKLSCAASGFAFSSYDMSWVRQIPEKRLEWVATITSGGGYTYSADSVKGRFTISRDNARNTLYLQMSSLRSEDTAVYYCARQNWVVGLAYWGQGTLVTVSA
VL: DIVMSQSPSSLSVSAGDKVTMSCKSSQSLLNSGNQKNYLAWYQQKPWQPPKLLIYGASTRESGVPDRFTGSGSGTDFTLTISSVQAEDLAVYYCQNDYSYPYTFGGGTKLEIKR
Take B8: in assay [1], the DH82 pSTAT Assay, Co-incubation IC50 is 1.92 µg/ml and the DH82 pSTAT Assay, Pre-treatment IC50 turned out to be 1.33 µg/ml. Further, in assay [2], the Kd is 0.515 pM.

B9: 11E12 Heterochimera (antibody, V domains shown)
VH: EVQLVQSGAEVKKPGASVKVSCKTSGYTFKYYDINWVRQAPGAGLDWMGWIFPGDGGTKYNETFKGRVTLTADTSTSTAYMELSSLRAGDIAVYYCARGGTSVIRDAMDYWGQGTLVTVSS
VL: DIVLTQSPASLAVSLGQRATISCRASESVDNYGISFMHWYQQKPGQPPKLLIYRASNLESGIPARFSGSGSRTDFTLTINPVETDDVATYYCQQSNKDPLTFGAGTKLELKR
Regarding B9, in assay [1], the DH82 pSTAT Assay, Co-incubation IC50 came out at 2.67 µg/ml and the DH82 pSTAT Assay, Pre-treatment IC50 worked out at 3.35 µg/ml. Further, in assay [2], the Kd amounted to 4.97 pM.

B10: Caninized 11E12 13 (antibody, V domains shown)
VH: EVQLVQSGAEVKKPGASVKVSCKTSGYTFKYYDINWVRQAPGAGLDWMGWIFPGDGGTKYNETFKGRVTLTADTSTSTAYMELSSLRAGDIAVYYCARGGTSVIRDAMDYWGQGTLVTVSS
VL: DIVMTQTPLSLSVSPGEPASISCRASESVDNYGISFMHWFQQKPGQSPQLLIYRASNLESGVPDRFSGSGSGTDFTLRISRVEADDAGVYYCQQSNKDPLTFGAGTKLEIKR
As to B10, in assay [1], the DH82 pSTAT Assay, Co-incubation IC50 came to 5.49 µg/ml and the DH82 pSTAT Assay, Pre-treatment IC50 amounted to 5.18 µg/ml. In addition, the equilibrium dissociation constant (Kd) in assay [2] amounted to 5.16 pM.

B11: Caninized 11E12 (antibody, V domains shown)
VH: EVQLVQSGAEVKKPGASVKVSCKTSGYTFKYYDINWVRQAPGAGLDWMGWIFPGDGGTKYNETFKGRVTLTADTSTSTAYMELSSLRAGDIAVYYCARGGTSVIRDAMDYWGQGTLVTVSS
VL: DIVMTQTPLSLSVSPGEPASISCRASESVDNYGISFMHWFQQKPGQSPQRLIYRASNLESGVPDRFSGSGSGTDFTLRISRVEADDAGVYYCQQSNKDPLTFGAGTKLEIKR
Consider B11, for which, in assay [4], the Kd came to 506000 pM.

B12: Caninized 11E12 FW2 (antibody, V domains shown)
VH: EVQLVQSGAEVKKPGASVKVSCKTSGYTFKYYDINWVRQAPGAGLDWMGWIFPGDGGTKYNETFKGRVTLTADTSTSTAYMELSSLRAGDIAVYYCARGGTSVIRDAMDYWGQGTLVTVSS
VL: DIVMTQTPLSLSVSPGEPASISCRASESVDNYGISFMHWYQQKPGQPPKLLIYRASNLESGVPDRFSGSGSGTDFTLRISRVEADDAGVYYCQQSNKDPLTFGAGTKLEIKR
For the molecule B12, in assay [1], the DH82 pSTAT Assay, Co-incubation IC50 was 2.7 µg/ml and the DH82 pSTAT Assay, Pre-treatment IC50 is 5.31 µg/ml. In addition, the Kd in assay [2] is 147 pM.

B13: Caninized 19D07 (antibody, V domains shown)
VH: EVQLVESGGDLVKPGGSLRLSCVASGFTFSSYDMSWVRQAPGKGLQWVATITSGGGYTYSADSVKGRFTISRDNARNTLYLQMNSLRSEDTAVYYCARQNWVVGLAYWGQGTLVTVSS
VL: EIVMTQSPASLSLSQEEKVTITCKSSQSLLNSGNQKNYLAWYQQKPGQAPKLLIYGASTRESGVPSRFSGSGSGTDFSFTISSLEPEDVAVYYCQNDYSYPYTFGQGTKLEIKR
For B13, in assay [2], the Kd worked out at 923 pM.
